In test [1] the target is 33‐mer gliadin peptide (wheat). The experiment in a line: other fluorescence titration; intrinsic Tyr steady-state fluorescence anisotropy against peptide concentration (100-600 μM), stabilised aqueous solution pH 6.5, 25 °C, excitation 280 nm, emission 305 nm; simple one-to-one binding model; step: association of oligomers into the larger structures. (In general: Fluorescence polarisation rises when a labelled molecule tumbles more slowly, as on binding a larger partner.)

Test [2] has as its target 33‐mer gliadin peptide (wheat). Briefly: surface tension (Wilhelmy plate); titration of freshly filtered (220 nm cut-off) peptide into the subphase, nanomolar range, 22 °C; critical concentration of aggregation.

We go through 1 substance from publication PMC9828358.

By Kd is commonly meant the concentration at which binding is half-saturated. Regarding 33‐mer gliadin peptide, in test [1], the Kd turned out to be 165 µM. Also, in test [2], the critical concentration of aggregation (CAC) came out at 75 nM.
